Here are results for 5 molecules from PMC10611586, “Molecular basis for ubiquitin/Fubi cross-reactivity in USP16 and USP36” (Nature Chemical Biology, 2023).

Common to all, as to settings: both partners purified
Assay [1] has as its target T1, ubiquitin-PA (untagged, wild type) (human, UniProt P0CG47 1-75, C-terminal propargylamine (PA) warhead).
T1 construct: ubiquitin, human, residues 1-75 of the 76-residue ubiquitin; also called Ub-PA; wild-type ubiquitin-PA
The assay is described as follows: activity-based probe labelling (covalent conjugate), SDS-PAGE; purified protease 2.5 µM and probe 10 µM, 1 h at 37 °C; 20 mM Tris pH 8.0, 300 mM NaCl, 2 mM DTT, 5% glycerol; SDS-PAGE and Coomassie staining.

For assay [2], the target named is T1, ubiquitin-PA (untagged, wild type). As to the kind of experiment: intact protein LC-MS; covalent USP36~probe complexes analysed by intact protein mass spectrometry.
For assay [3], the target named is T2, Fubi-PA (untagged, wild type) (human, UniProt P62861 1-73, C-terminal propargylamine (PA) warhead).
T2 construct: Fubi, human, residues 1-73 of the 74-residue Fubi; also called wild-type Fubi-PA; Fubi-based probe
The description is as above.

T2 sequence (P62861 1-73): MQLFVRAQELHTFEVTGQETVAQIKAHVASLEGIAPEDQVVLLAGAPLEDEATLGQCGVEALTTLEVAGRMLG

B1: USP2^258–605 (catalytic domain) (enzyme, human, UniProt O75604 258-605, looked up)
chain: MNSKSAQGLAGLRNLGNTCFMNSILQCLSNTRELRDYCLQRLYMRDLHHGSNAHTALVEEFAKLIQTIWTSSPNDVVSPSEFKTQIQRYAPRFVGYNQQDAQEFLRFLLDGLHNEVNRVTLRPKSNPENLDHLPDDEKGRQMWRKYLEREDSRIGDLFVGQLKSSLTCTDCGYCSTVFDPFWDLSLPIAKRGYPEVTLMDCMRLFTKEDVLDGDEKPTCCRCRGRKRCIKKFSIQRFPKILVLHLKRFSESRIRTSKLTTFVNFPLRDLDLREFASENTNHAVYNLYAVSNHSGTTMGGHYTAYCRSPGTGEWHTFNDSSVTPMSSSQVRTSDAYLLFYELASPPSRM
notes: USP2, human, catalytic domain, residues 258-605; also called recombinant USP2; source: E. coli Rosetta2(DE3)pLacI, purified (HisTrap, 3C cleavage, SEC)
As to B1, the binding result in assay [1] is listed as “binds”.

B2: USP36^81–424 (catalytic domain, shorter construct) (enzyme, human, UniProt Q9P275 81-424, looked up)
chain: ARRQGSEHTYESCGDGVPAPQKVLFPTERLSLRWERVFRVGAGLHNLGNTCFLNATIQCLTYTPPLANYLLSKEHARSCHQGSFCMLCVMQNHIVQAFANSGNAIKPVSFIRDLKKIARHFRFGNQEDAHEFLRYTIDAMQKACLNGCAKLDRQTQATTLVHQIFGGYLRSRVKCSVCKSVSDTYDPYLDVALEIRQAANIVRALELFVKADVLSGENAYMCAKCKKKVPASKRFTIHRTSNVLTLSLKRFANFSGGKITKDVGYPEFLNIRPYMSQNNGDPVMYGLYAVLVHSGYSCHAGHYYCYVKASNGQWYQMNDSLVHSSNVKVVLNQQAYVLFYLRIP
notes: USP36, human, catalytic domain, residues 81-424; also called shorter USP36^81–424 construct; source: E. coli Rosetta2(DE3)pLacI, purified (HisTrap, 3C cleavage, cation exchange)
As to B2, the binding result in assay [1] is given as “binds”.

B3: USP42^70–446 (catalytic domain) (enzyme, human, UniProt Q9H9J4 70-446, looked up)
chain: DKSKPSPQKDQALGDGIAPPQKVLFPSEKICLKWQQTHRVGAGLQNLGNTCFANAALQCLTYTPPLANYMLSHEHSKTCHAEGFCMMCTMQAHITQALSNPGDVIKPMFVINEMRRIARHFRFGNQEDAHEFLQYTVDAMQKACLNGSNKLDRHTQATTLVCQIFGGYLRSRVKCLNCKGVSDTFDPYLDITLEIKAAQSVNKALEQFVKPEQLDGENSYKCSKCKKMVPASKRFTIHRSSNVLTLSLKRFANFTGGKIAKDVKYPEYLDIRPYMSQPNGEPIVYVLYAVLVHTGFNCHAGHYFCYIKASNGLWYQMNDSIVSTSDIRSVLSQQAYVLFYIRSHDVKNGGELTHPTHSPGQSSPRPVISQRVVTNKQ
notes: USP42, human, catalytic domain, residues 70-446; also called recombinant USP42; source: E. coli Rosetta2(DE3)pLacI, purified (HisTrap, 3C cleavage, reverse Ni-NTA, cation exchange)
For B3, the binding result in assay [1] is recorded as “binds”.

B4: USP36^81–461 (catalytic domain, longer construct) (enzyme, human, UniProt Q9P275 81-461, looked up)
chain: ARRQGSEHTYESCGDGVPAPQKVLFPTERLSLRWERVFRVGAGLHNLGNTCFLNATIQCLTYTPPLANYLLSKEHARSCHQGSFCMLCVMQNHIVQAFANSGNAIKPVSFIRDLKKIARHFRFGNQEDAHEFLRYTIDAMQKACLNGCAKLDRQTQATTLVHQIFGGYLRSRVKCSVCKSVSDTYDPYLDVALEIRQAANIVRALELFVKADVLSGENAYMCAKCKKKVPASKRFTIHRTSNVLTLSLKRFANFSGGKITKDVGYPEFLNIRPYMSQNNGDPVMYGLYAVLVHSGYSCHAGHYYCYVKASNGQWYQMNDSLVHSSNVKVVLNQQAYVLFYLRIPGSKKSPEGLISRTGSSSLPGRPSVIPDHSKKNIGNGI
notes: also called recombinant USP36; source: E. coli Rosetta2(DE3)pLacI, purified (HisTrap, 3C cleavage, cation exchange)
Regarding B4, the “stoichiometry N” value in assay [2] and in assay [3] was 1 each time.

B5: USP16^191–823 (catalytic domain) (enzyme, human, UniProt Q9Y5T5 191-823, looked up)
chain: CQITVKGLSNLGNTCFFNAVMQNLSQTPVLRELLKEVKMSGTIVKIEPPDLALTEPLEINLEPPGPLTLAMSQFLNEMQETKKGVVTPKELFSQVCKKAVRFKGYQQQDSQELLRYLLDGMRAEEHQRVSKGILKAFGNSTEKLDEELKNKVKDYEKKKSMPSFVDRIFGGELTSMIMCDQCRTVSLVHESFLDLSLPVLDDQSGKKSVNDKNLKKTVEDEDQDSEEEKDNDSYIKERSDIPSGTSKHLQKKAKKQAKKQAKNQRRQQKIQGKVLHLNDICTIDHPEDSEYEAEMSLQGEVNIKSNHISQEGVMHKEYCVNQKDLNGQAKMIESVTDNQKSTEEVDMKNINMDNDLEVLTSSPTRNLNGAYLTEGSNGEVDISNGFKNLNLNAALHPDEINIEILNDSHTPGTKVYEVVNEDPETAFCTLANREVFNTDECSIQHCLYQFTRNEKLRDANKLLCEVCTRRQCNGPKANIKGERKHVYTNAKKQMLISLAPPVLTLHLKRFQQAGFNLRKVNKHIKFPEILDLAPFCTLKCKNVAEENTRVLYSLYGVVEHSGTMRSGHYTAYAKARTANSHLSNLVLHGDIPQDFEMESKGQWFHISDTHVQAVPTTKVLNSQAYLLFYERIL
notes: USP16, human, catalytic domain, residues 191-823; also called recombinant USP16; source: E. coli Rosetta2(DE3)pLacI, purified (HisTrap, 3C cleavage, reverse Ni-NTA, anion exchange, SEC)
B5: the binding result in assay [1] is recorded as “binds”.
